Patent US8735553 (BEIGENE SWITZERLAND, dated 2014)
Where a chain is given by its changes, count along the chain named. Names may count otherwise. Each block holds one binder with its values, some of them ahead of it.

Legend:
[1] = biological target: T1, wild-type human PD-1 recombinant protein (PD-1/His or PD-1/Fc, not said which) (human, UniProt Q15116 21-168); test: ELISA on coated recombinant PD-1; cell carries the * mark (Fab version); ELISA cell marked *
T1 construct: also called WT PD-1

[2] = biological target: T2, human PD-1 expressed on cells (human, UniProt Q15116 25-288); test: FACS on PD-1-expressing cells
T2 construct: whole, on cells; also called HuT78/PD-1; NK92MI/PD-1
T2 sequence (Q15116 25-288): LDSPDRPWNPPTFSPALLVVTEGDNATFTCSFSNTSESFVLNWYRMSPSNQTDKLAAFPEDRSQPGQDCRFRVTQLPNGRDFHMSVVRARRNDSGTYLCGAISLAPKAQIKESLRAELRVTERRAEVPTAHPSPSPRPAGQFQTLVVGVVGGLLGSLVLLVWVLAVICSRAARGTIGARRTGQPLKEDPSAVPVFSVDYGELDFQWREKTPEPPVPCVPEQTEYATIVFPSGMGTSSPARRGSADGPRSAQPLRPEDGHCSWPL

PD-1-EC/His = biological target: T3, PD-1-EC/His (human, UniProt Q15116 21-168); test: SPR (BIAcore T-200), human PD-1/His coupled to CM5 chip, Fab injected
T3 construct: AA 1-168 includes the signal peptide; also called PD-1/His; human PD-1/His
T3 sequence (Q15116 21-168): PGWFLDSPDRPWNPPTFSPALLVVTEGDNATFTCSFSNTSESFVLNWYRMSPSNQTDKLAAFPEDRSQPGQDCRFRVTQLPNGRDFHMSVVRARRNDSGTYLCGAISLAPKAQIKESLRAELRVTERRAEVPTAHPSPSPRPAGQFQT
Description: For affinity determinations of anti-PD-1 Fabs, SPR assays were used with the BIAcore™ T-200 instrument (GE Life Sciences). […] Association rates ($kon$) and dissociation rates ($koff$) were calculated using the one-to-one Langmuir binding model (BIA Evaluation Software, GE Life Sciences). The equilibrium dissociation constant (K_d) was calculated as the ratio $koff/kon$.

human FcγRI = biological target: T4, human FcγRI (human, UniProt P12314 16-374); test: flow cytometry, FcγR+ HEK293 cells
T4 construct: whole, on cells; also called FcγR1
T4 sequence (P12314 16-374): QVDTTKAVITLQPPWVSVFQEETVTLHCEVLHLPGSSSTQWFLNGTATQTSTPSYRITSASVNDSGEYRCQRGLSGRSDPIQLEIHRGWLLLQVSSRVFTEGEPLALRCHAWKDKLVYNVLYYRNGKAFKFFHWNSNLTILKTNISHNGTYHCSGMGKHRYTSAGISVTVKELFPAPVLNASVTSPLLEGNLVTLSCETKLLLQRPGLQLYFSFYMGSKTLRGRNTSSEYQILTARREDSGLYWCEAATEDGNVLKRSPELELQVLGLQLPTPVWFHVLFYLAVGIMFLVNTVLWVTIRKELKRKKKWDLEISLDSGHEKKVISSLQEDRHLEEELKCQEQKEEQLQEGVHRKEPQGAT
Description: (§1) Binding of various IgG4 mutants to FcγRs was determined by flow cytometry. In brief, a series of HEK293 transfectants expressing human FcγRs were established. These transfectants expressed FcγRI, FcγRIIA, FcγRIIB or FcγRIIIA Multi-subunit FcγRs (i.e., FcγR1 and FcγRIIIA) were co-expressed with FcRγ. Polymorphic variants (i.e., FcγRIIA H131 and R131, FcγRIIIA F158 and V158) were also included.

human FcγRIIIA (F158) = biological target: T5, human FcγRIIIA (F158) (human, UniProt P08637 17-254); test: flow cytometry, FcγR+ HEK293 cells
T5 construct: whole, on cells
T5 sequence (P08637 17-254): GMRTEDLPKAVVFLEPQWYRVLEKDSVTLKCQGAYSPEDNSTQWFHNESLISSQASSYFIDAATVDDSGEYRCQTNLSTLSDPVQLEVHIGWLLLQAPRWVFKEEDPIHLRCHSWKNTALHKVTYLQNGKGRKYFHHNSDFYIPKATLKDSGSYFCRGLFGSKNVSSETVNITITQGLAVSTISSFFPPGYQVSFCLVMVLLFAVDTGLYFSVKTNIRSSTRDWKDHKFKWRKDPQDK
Description: as §1

human FcγRIIA (H131) = biological target: T6, human FcγRIIA (H131) (human, UniProt P12318 34-317); test: flow cytometry, FcγR+ HEK293 cells
T6 construct: whole, on cells
T6 sequence (looked up): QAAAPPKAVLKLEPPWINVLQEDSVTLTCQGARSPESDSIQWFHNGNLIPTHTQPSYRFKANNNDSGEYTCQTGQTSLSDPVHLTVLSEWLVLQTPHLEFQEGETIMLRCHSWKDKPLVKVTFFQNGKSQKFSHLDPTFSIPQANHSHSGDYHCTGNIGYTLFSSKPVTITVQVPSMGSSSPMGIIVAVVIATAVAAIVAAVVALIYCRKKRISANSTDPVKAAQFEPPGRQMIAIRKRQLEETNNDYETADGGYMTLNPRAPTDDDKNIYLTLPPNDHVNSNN
Description: as §1

human FcγRIIA (R131) = biological target: T7, human FcγRIIA (R131) (human, UniProt P12318 34-317); test: flow cytometry, FcγR+ HEK293 cells
T7 construct: whole, on cells
T7 sequence (looked up): T6 sequence (looked up) with H134R
Description: as §1

[3] = biological target: T2, human PD-1 expressed on cells; test: cell-based or functional assay
[4] = biological target: P3Z chimeric PD-1 receptor (human); test: cell-based or functional assay
P3Z chimeric PD-1 receptor (human), sequence (chain, as listed by the source mutant limits assumed): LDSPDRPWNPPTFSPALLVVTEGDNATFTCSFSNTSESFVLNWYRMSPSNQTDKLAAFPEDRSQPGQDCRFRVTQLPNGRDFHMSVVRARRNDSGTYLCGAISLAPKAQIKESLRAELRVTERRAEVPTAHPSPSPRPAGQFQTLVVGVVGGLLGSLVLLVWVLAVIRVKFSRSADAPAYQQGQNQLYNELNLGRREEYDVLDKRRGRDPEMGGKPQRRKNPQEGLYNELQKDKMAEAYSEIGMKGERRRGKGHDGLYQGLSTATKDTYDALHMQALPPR

[5] = biological target: T2, human PD-1 expressed on cells; test: FACS on PD-1-expressing cells, goat anti-mouse IgG detection
[6] = biological target: P3Z chimeric PD-1 receptor (human); test: cell-based or functional assay; remark: listed apart in the source
[7] = biological target: T2, human PD-1 expressed on cells; test: cell-based or functional assay; remark: listed apart in the source
[8] = biological target: P3Z chimeric PD-1 receptor (human); test: cell-based or functional assay; remark: listed apart in the source
[9] = biological target: T2, human PD-1 expressed on cells; test: cell-based or functional assay; remark: listed apart in the source
[10] = biological target: T2, human PD-1 expressed on cells; test: cell-based or functional assay; remark: listed apart in the source
[11] = biological target: T2, human PD-1 expressed on cells; test: cell-based or functional assay; remark: listed apart in the source

T1 sequence (Q15116 21-168 limits assumed): as the sequence (Q15116 21-168) above

B2: hu326-3B1 (antibody, V domains shown)
VH: QVQLVQSGSELKKPGASVKVSCKASGYTFTNYGMNWVRQAPGQGLKWMGWINNNNGEPTYAQDFRGRFVFSLDTSASTAYLQISSLKTEDTAVYYCARDVMDYWGQGTLVTVSS
VL: DIVLTQSPASLAVSPGQRATITCRASESVDNYGYSFMHWYQQKPGQPPKLLIYRASNLESGVPARFSGSGSRTDFTLTINPVEANDTANYYCQQSKEYPTFGGGTKVEIK
notes: Humanized mAb
EC50 [2]: 0.165 µg/mL

B4: hu317-4B6/IgG4mt6 (antibody)
heavy: QVQLQESGPGLVKPSETLSLTCTVSGFSLTSYGVHWIRQPPGKGLEWIGVIYADGSTNYNPSLKSRVTISKDTSKNQVSLKLSSVTAADTAVYYCARAYGNYWYIDVWGQGTTVTVSSASTKGPSVFPLAPCSRSTSESTAALGCLVKDYFPEPVTVSWNSGALTSGVHTFPAVLQSSGLYSLSSVVTVPSSSLGTKTYTCNVDHKPSNTKVDKRVESKYGPPCPPCPAPPVAGGPSVFLFPPKPKDTLMISRTPEVTCVVVAVSQEDPEVQFNWYVDGVEVHNAKTKPREEQFNSTYRVVSVLTVLHQDWLNGKEYKCKVSNKGLPSSIEKTISKAKGQPREPQVYTLPPSQEEMTKNQVSLTCLVKGFYPSDIAVEWESNGQPENNYKTTPPVLDSDGSFFLYSRLTVDKSRWQEGNVFSCSVMHEALHNHYTQKSLSLSLGK
VL: DIVMTQSPDSLAVSLGERATINCKSSESVSNDVAWYQQKPGQPPKLLINYAFHRFTGVPDRFSGSGYGTDFTLTISSLQAEDVAVYYCHQAYSSPYTFGQGTKLEIK
notes: Light chain constant region not restated for this format; copies: 2 + 2
MFI (human FcγRI): 1 MFI

B5: hu317-1/IgG4mt6 (antibody)
heavy: B4 heavy with I48L, Y52W, D54G, V67L, T73N, N76S, L82M
VL: B4 VL with S25A, E27Q, Q100G
notes: as for B4
MFI (human FcγRIIIA (F158)): 0.9 MFI
MFI (human FcγRIIA (H131)): 1 MFI
MFI (human FcγRIIA (R131)): 0.8 MFI

Continued, in another order:

EC50 [1]: 0.091 µg/mL
B1: hu326-4A3 Fab (Fab, V domains shown)
VH: B2 VH with G56A
VL: B2 VL with R72G, N85E
notes: Fab: VH on human IgG2 CH1 (C232S, C233S, Kabat) with C-terminal c-Myc-His8 tag; also called hu326-4A3 (Fab version)

Kd (PD-1-EC/His): 1 nM
B3: hu326-3G1 Fab (Fab, V domains shown)
VH: B2 VH with S9P
VL: B2 VL
notes: Fab: VH on human IgG2 CH1 (C232S, C233S, Kabat) with C-terminal c-Myc-His8 tag

Inhibition of IL-2 secretion, IC50 (HuT78/P3Z + HEK293/PD-L2) [4]: 0.02 µg/mL
EC50 [5]: 0.11 µg/mL
Inhibition of IL-2 secretion, IC50 (HuT78/P3Z + HEK293/PD-L1) [6]: 0.083 µ/ml
Assay-1 IL-2 release, EC50 (HuT78/PD-1 + HEK293/OS8/PD-L1) [7]: 0.11 µg/mL
Assay-1 IL-2 release, Top line (HuT78/PD-1 + HEK293/OS8/PD-L1) [7]: 346 pg/mL
Assay-2 IL-2 release, IC50 (HuT78/P3Z + HEK293/PD-L1) [8]: 0.11 µg/mL
Assay-2 IL-2 release, Max inhibition (HuT78/P3Z + HEK293/PD-L1) [8]: 99.5%
IFN-γ secreted, EC50 (NK92MI/PD-1 + SK-MES-1/PD-L1) [9]: 0.4 µg/mL
IL-2 release, EC50 (HuT78/PD-1 + HEK293/OS8/PD-L2) [10]: 0.032 µg/mL
IL-2 release, EC50 (HuT78/PD-1 + HEK293/OS8/PD-L1) [11]: 0.083 µg/mL
B6: murine mAb 317 (antibody, V domains shown)
VH: QVQLKESGPGLVAPSKNLSITCTVSGFSLTSYGVHWIRQPPGKGLEWLGVIWAGGSTNYNSALMSRLSISKDNSRSQVFLRMNSLQTDDTAMYYCARAYGNYWYIDVWGAGTTVTVSS
VL: DIVMTQTPKFLLVSAGDRVTITCKASQSVSNDVAWYQQKPGQSPKLLINYAFHRFTGVPDRFTGSGYGTDFIFTISTVQAEDLAVYFCHQAYSSPYTFGGGTKLEMK
notes: Murine hybridoma antibody; also called mu317
Cytotoxicity of NK92MI/PD-1 cells against SK-MES-1/PD-L1, EC50 [3]: 0.5 µg/mL
